T1: Human secretagogin (SEQ ID NO: 1, containing an amino terminal … FLIS tag) (human, UniProt O76038 1-276)
T1 construct: It was biotinylated for the screening ELISA and unlabeled in the sandwich screens; also called Secretagogin protein; human secretagogin-biotin
T1 sequence: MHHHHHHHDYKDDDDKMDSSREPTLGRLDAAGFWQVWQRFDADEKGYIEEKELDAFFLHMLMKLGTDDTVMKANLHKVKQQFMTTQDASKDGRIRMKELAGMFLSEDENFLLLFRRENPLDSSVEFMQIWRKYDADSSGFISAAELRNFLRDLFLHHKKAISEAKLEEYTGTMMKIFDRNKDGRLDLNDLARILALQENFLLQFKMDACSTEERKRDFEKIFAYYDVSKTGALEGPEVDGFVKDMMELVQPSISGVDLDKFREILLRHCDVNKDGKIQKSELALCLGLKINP

B1: ST102Z X1ZM 01611 (antibody, V domains shown)
VH: QVQLQQSRPELVRPGASVKISCKAPGYIFTSHWMQWVRQRPGQGLEWIGEIFPGSGSTFYNEKFKDKATLTVDTSSSTAYMQLSSLTSEDSAVYFCARTDYYSSAMDYWGQGTSVTVSS
VL: ETTVTQSPSSLSMAIGEKVTIRCITHTDIDDDMNWYQQKPGEPPKLLISEGNTLRPGVPSRFSSSGFGTDFFFTIENMLSEDVADYYCLQSDTLPLTFGAGTKLELK
notes: Mouse monoclonal antibody from phage-display library ST102ZX1, expressed in E. coli from a plasmid vector
B2: ST108Z R1ZM 02871 (antibody, V domains shown)
VH: EVQLQQSGPELVKPGTSVKMSCKASGYSFTDYNMHWVKQSHGKSLEWIGYVDPNIGGTSYNPKFKGKATLTVNKSSSTAYMELRSLTSEDSAVYFCARYPNYSGRRYLFAMDYWGQGTSVTVSS
VL: EIVLTQSPAIMSASPGEKVTLTCSASSSISSSYFYWYRQKPGSSPQLWIYGTSNLASGVPARFSGSGSGTSYSLTISSMEAEDAASYFCHQWSSYPLTFGAGTKLELK
notes: Mouse monoclonal antibody from phage-display library ST108ZR1, expressed in E. coli from a plasmid vector

Target: T1, Human secretagogin (SEQ ID NO: 1, …)
Test: method not stated

Row | Binder | Ka
1 | B1 | ≥ 1e+10 M⁻¹
2 | B2 | ≥ 1e+10 M⁻¹
